Where two headings read alike, the source gives them in different places.
Key:
[1] = Teduglutide stability in the foam after the gassing process; type: physicochemical; details: Ted-loaded foam and effervescence-like formulation, n = 3 (Figure S3)
[2] = cited from earlier work
[3] = system: GLP-1R; details: GL can also activate GLP-1R; cited from earlier work

## teduglutide
[1]
  stability of Ted after the foaming process (concentration change): degraded after the foaming process

## Glucagon-like peptide 2 [GLP-2]
[2]; native GLP-2, healthy individuals, breakdown by DPP-4
  elimination half-life: 7 min

## Glepaglutide
[2]; in humans
  elimination half-life: up to 50 h
[3]
  binding affinity at GLP-1R: low binding affinity

Reference: PMC11912111 (Advanced Healthcare Materials, 2025)
